± gives the uncertainty stated by the source.
B1: Formin-binding protein 4, residues 200 to 261; numbered along this chain, Q8N3X1 (parent)
chain: SGWQYDTQCSLAGVGIEMGDWQEVWDENTGCYYYWNTQTNEVTWELPQYLATQVQGLQHYQP

Variants of: B1
Assay: abundance fitness (aPCA) (normalised: wild type 0, dead -1); higher = more abundant; growth selection in yeast, the domain comes from the species named
Details: Homo sapiens

Row | Variant | abundance fitness
1 | SGWQYDTQCSLAGVGIEMGDCQEVWDENTGCYYYWNTQTNEVTWELPQYLATQVQGLQHYQP | -0.804 ± 0.17
2 | SGWQYDTQCSLAGVGIEMGDVQEVWDENTGCYYYWNTQTNEVTWELPQYLATQVQGLQHYQP | -0.82 ± 0.1
3 | SGWQYDTQCSLAGVGIEMGDEQEVWDENTGCYYYWNTQTNEVTWELPQYLATQVQGLQHYQP | -1.03 ± 0.22
4 | SGWQYDTQCSLAGVGIEMGDHQEVWDENTGCYYYWNTQTNEVTWELPQYLATQVQGLQHYQP | -0.297 ± 0.29
5 | SGWQYDTQCSLAGVGIEMGDNQEVWDENTGCYYYWNTQTNEVTWELPQYLATQVQGLQHYQP | -1.1 ± 0.3
6 | SGWQYDTQCSLAGVGIEMGDGQEVWDENTGCYYYWNTQTNEVTWELPQYLATQVQGLQHYQP | -0.791 ± 0.093
7 | SGWQYDTQCSLAGVGIEMGDKQEVWDENTGCYYYWNTQTNEVTWELPQYLATQVQGLQHYQP | -1.05 ± 0.26
8 | SGWQYDTQCSLAGVGIEMGDLQEVWDENTGCYYYWNTQTNEVTWELPQYLATQVQGLQHYQP | -0.847 ± 0.082
9 | SGWQYDTQCSLAGVGIEMGDYQEVWDENTGCYYYWNTQTNEVTWELPQYLATQVQGLQHYQP | -0.066 ± 0.21
10 | SGWQYDTQCSLAGVGIEMGDAQEVWDENTGCYYYWNTQTNEVTWELPQYLATQVQGLQHYQP | -0.948 ± 0.15
11 | SGWQYDTQCSLAGVGIEMGDMQEVWDENTGCYYYWNTQTNEVTWELPQYLATQVQGLQHYQP | -0.498 ± 0.1
12 | SGWQYDTQCSLAGVGIEMGDFQEVWDENTGCYYYWNTQTNEVTWELPQYLATQVQGLQHYQP | -0.313 ± 0.11
13 | SGWQYDTQCSLAGVGIEMGDTQEVWDENTGCYYYWNTQTNEVTWELPQYLATQVQGLQHYQP | -0.792 ± 0.16
14 | SGWQYDTQCSLAGVGIEMGDDQEVWDENTGCYYYWNTQTNEVTWELPQYLATQVQGLQHYQP | -0.716 ± 0.25
15 | SGWQYDTQCSLAGVGIEMGDPQEVWDENTGCYYYWNTQTNEVTWELPQYLATQVQGLQHYQP | -0.812 ± 0.17
16 | SGWQYDTQCSLAGVGIEMGDIQEVWDENTGCYYYWNTQTNEVTWELPQYLATQVQGLQHYQP | -0.859 ± 0.22
17 | SGWQYDTQCSLAGVGIEMGDRQEVWDENTGCYYYWNTQTNEVTWELPQYLATQVQGLQHYQP | -0.811 ± 0.081
18 | SGWQYDTQCSLAGVGIEMGFWQEVWDENTGCYYYWNTQTNEVTWELPQYLATQVQGLQHYQP | 0.15 ± 0.098
19 | SGWQYDTQCSLAGVGIEMGWWQEVWDENTGCYYYWNTQTNEVTWELPQYLATQVQGLQHYQP | -0.143 ± 0.084
20 | SGWQYDTQCSLAGVGIEMGEWQEVWDENTGCYYYWNTQTNEVTWELPQYLATQVQGLQHYQP | -0.162 ± 0.064
21 | SGWQYDTQCSLAGVGIEMGTWQEVWDENTGCYYYWNTQTNEVTWELPQYLATQVQGLQHYQP | -0.339 ± 0.079
22 | SGWQYDTQCSLAGVGIEMGVWQEVWDENTGCYYYWNTQTNEVTWELPQYLATQVQGLQHYQP | -0.237 ± 0.06

Row | Variant | abundance fitness
23 | SGWQYDTQCSLAGVGIEMGRWQEVWDENTGCYYYWNTQTNEVTWELPQYLATQVQGLQHYQP | -0.022 ± 0.068
24 | SGWQYDTQCSLAGVGIEMGSWQEVWDENTGCYYYWNTQTNEVTWELPQYLATQVQGLQHYQP | -0.295 ± 0.071
25 | SGWQYDTQCSLAGVGIEMGHWQEVWDENTGCYYYWNTQTNEVTWELPQYLATQVQGLQHYQP | -0.043 ± 0.13
26 | SGWQYDTQCSLAGVGIEMGLWQEVWDENTGCYYYWNTQTNEVTWELPQYLATQVQGLQHYQP | -0.383 ± 0.058
27 | SGWQYDTQCSLAGVGIEMGGWQEVWDENTGCYYYWNTQTNEVTWELPQYLATQVQGLQHYQP | -0.254 ± 0.077
28 | SGWQYDTQCSLAGVGIEMGKWQEVWDENTGCYYYWNTQTNEVTWELPQYLATQVQGLQHYQP | -0.287 ± 0.11
29 | SGWQYDTQCSLAGVGIEMGQWQEVWDENTGCYYYWNTQTNEVTWELPQYLATQVQGLQHYQP | -0.287 ± 0.091
30 | SGWQYDTQCSLAGVGIEMGIWQEVWDENTGCYYYWNTQTNEVTWELPQYLATQVQGLQHYQP | -0.579 ± 0.16
31 | SGWQYDTQCSLAGVGIEMGPWQEVWDENTGCYYYWNTQTNEVTWELPQYLATQVQGLQHYQP | -0.252 ± 0.082
32 | SGWQYDTQCSLAGVGIEMGMWQEVWDENTGCYYYWNTQTNEVTWELPQYLATQVQGLQHYQP | -0.29 ± 0.095
33 | SGWQYDTQCSLAGVGIEMGCWQEVWDENTGCYYYWNTQTNEVTWELPQYLATQVQGLQHYQP | -0.162 ± 0.13
34 | SGWQYDTQCSLAGVGIEMGNWQEVWDENTGCYYYWNTQTNEVTWELPQYLATQVQGLQHYQP | -0.264 ± 0.15
35 | SGWQYDTQCSLAGVGIEMGAWQEVWDENTGCYYYWNTQTNEVTWELPQYLATQVQGLQHYQP | -0.3 ± 0.068
36 | SGWQYDTQCSLAGVGIEMGYWQEVWDENTGCYYYWNTQTNEVTWELPQYLATQVQGLQHYQP | -0.217 ± 0.11
37 | SGWQYDTQCSLAGVGIEMGDWPEVWDENTGCYYYWNTQTNEVTWELPQYLATQVQGLQHYQP | -0.905 ± 0.14
38 | SGWQYDTQCSLAGVGIEMGDWVEVWDENTGCYYYWNTQTNEVTWELPQYLATQVQGLQHYQP | 0.063 ± 0.077
39 | SGWQYDTQCSLAGVGIEMGDWWEVWDENTGCYYYWNTQTNEVTWELPQYLATQVQGLQHYQP | -0.61 ± 0.15
40 | SGWQYDTQCSLAGVGIEMGDWDEVWDENTGCYYYWNTQTNEVTWELPQYLATQVQGLQHYQP | -0.371 ± 0.16
41 | SGWQYDTQCSLAGVGIEMGDWNEVWDENTGCYYYWNTQTNEVTWELPQYLATQVQGLQHYQP | -0.023 ± 0.17
42 | SGWQYDTQCSLAGVGIEMGDWYEVWDENTGCYYYWNTQTNEVTWELPQYLATQVQGLQHYQP | -0.586 ± 0.26
43 | SGWQYDTQCSLAGVGIEMGDWCEVWDENTGCYYYWNTQTNEVTWELPQYLATQVQGLQHYQP | -0.459 ± 0.13
44 | SGWQYDTQCSLAGVGIEMGDWAEVWDENTGCYYYWNTQTNEVTWELPQYLATQVQGLQHYQP | -0.121 ± 0.086

Row | Variant | abundance fitness
45 | SGWQYDTQCSLAGVGIEMGDWHEVWDENTGCYYYWNTQTNEVTWELPQYLATQVQGLQHYQP | -0.641 ± 0.21
46 | SGWQYDTQCSLAGVGIEMGDWLEVWDENTGCYYYWNTQTNEVTWELPQYLATQVQGLQHYQP | -0.315 ± 0.072
47 | SGWQYDTQCSLAGVGIEMGDWGEVWDENTGCYYYWNTQTNEVTWELPQYLATQVQGLQHYQP | -0.234 ± 0.15
48 | SGWQYDTQCSLAGVGIEMGDWSEVWDENTGCYYYWNTQTNEVTWELPQYLATQVQGLQHYQP | -0.136 ± 0.072
49 | SGWQYDTQCSLAGVGIEMGDWMEVWDENTGCYYYWNTQTNEVTWELPQYLATQVQGLQHYQP | -0.217 ± 0.1
50 | SGWQYDTQCSLAGVGIEMGDWTEVWDENTGCYYYWNTQTNEVTWELPQYLATQVQGLQHYQP | -0.137 ± 0.09
51 | SGWQYDTQCSLAGVGIEMGDWEEVWDENTGCYYYWNTQTNEVTWELPQYLATQVQGLQHYQP | 0.042 ± 0.19
52 | SGWQYDTQCSLAGVGIEMGDWFEVWDENTGCYYYWNTQTNEVTWELPQYLATQVQGLQHYQP | -0.423 ± 0.13
53 | SGWQYDTQCSLAGVGIEMGDWREVWDENTGCYYYWNTQTNEVTWELPQYLATQVQGLQHYQP | 0.006 ± 0.072
54 | SGWQYDTQCSLAGVGIEYGDWQEVWDENTGCYYYWNTQTNEVTWELPQYLATQVQGLQHYQP | -0.53 ± 0.21
55 | SGWQYDTQCSLAGVGIEMGDWQLVWDENTGCYYYWNTQTNEVTWELPQYLATQVQGLQHYQP | -0.637 ± 0.081
56 | SGWQYDTQCSLAGVGIEMGDWQWVWDENTGCYYYWNTQTNEVTWELPQYLATQVQGLQHYQP | -1.06 ± 0.28
57 | SGWQYDTQCSLAGVGIEMGDWQCVWDENTGCYYYWNTQTNEVTWELPQYLATQVQGLQHYQP | -0.862 ± 0.18
58 | SGWQYDTQCSLAGVGIEMGDWQSVWDENTGCYYYWNTQTNEVTWELPQYLATQVQGLQHYQP | -0.682 ± 0.094
59 | SGWQYDTQCSLAGVGIEMGDWQFVWDENTGCYYYWNTQTNEVTWELPQYLATQVQGLQHYQP | -0.511 ± 0.15
60 | SGWQYDTQCSLAGVGIEMGDWQTVWDENTGCYYYWNTQTNEVTWELPQYLATQVQGLQHYQP | -0.582 ± 0.12
61 | SGWQYDTQCSLAGVGIEMGDWQRVWDENTGCYYYWNTQTNEVTWELPQYLATQVQGLQHYQP | -0.59 ± 0.12
62 | SGWQYDTQCSLAGVGIEMGDWQQVWDENTGCYYYWNTQTNEVTWELPQYLATQVQGLQHYQP | -0.431 ± 0.12
63 | SGWQYDTQCSLAGVGIEMGDWQMVWDENTGCYYYWNTQTNEVTWELPQYLATQVQGLQHYQP | -0.964 ± 0.18
64 | SGWQYDTQCSLAGVGIEMGDWQVVWDENTGCYYYWNTQTNEVTWELPQYLATQVQGLQHYQP | -1.07 ± 0.17
65 | SGWQYDTQCSLAGVGIEMGDWQYVWDENTGCYYYWNTQTNEVTWELPQYLATQVQGLQHYQP | -0.58 ± 0.21
66 | SGWQYDTQCSLAGVGIEMGDWQHVWDENTGCYYYWNTQTNEVTWELPQYLATQVQGLQHYQP | -0.443 ± 0.36

Row | Variant | abundance fitness
67 | SGWQYDTQCSLAGVGIEMGDWQPVWDENTGCYYYWNTQTNEVTWELPQYLATQVQGLQHYQP | -0.697 ± 0.14
68 | SGWQYDTQCSLAGVGIEMGDWQIVWDENTGCYYYWNTQTNEVTWELPQYLATQVQGLQHYQP | -0.759 ± 0.22
69 | SGWQYDTQCSLAGVGIEMGDWQAVWDENTGCYYYWNTQTNEVTWELPQYLATQVQGLQHYQP | -0.817 ± 0.13
70 | SGWQYDTQCSLAGVGIEMGDWQEDWDENTGCYYYWNTQTNEVTWELPQYLATQVQGLQHYQP | -0.215 ± 0.14
71 | SGWQYDTQCSLAGVGIEMGDWQEAWDENTGCYYYWNTQTNEVTWELPQYLATQVQGLQHYQP | -0.409 ± 0.11
72 | SGWQYDTQCSLAGVGIEMWDWQEVWDENTGCYYYWNTQTNEVTWELPQYLATQVQGLQHYQP | -0.992 ± 0.17
73 | SGWQYDTQCSLAGVGIEMHDWQEVWDENTGCYYYWNTQTNEVTWELPQYLATQVQGLQHYQP | -0.642 ± 0.34
74 | SGWQYDTQCSLAGVGIEMMDWQEVWDENTGCYYYWNTQTNEVTWELPQYLATQVQGLQHYQP | -0.525 ± 0.12
75 | SGWQYDTQCSLAGVGIEMADWQEVWDENTGCYYYWNTQTNEVTWELPQYLATQVQGLQHYQP | -0.091 ± 0.068
76 | SGWQYDTQCSLAGVGIEMFDWQEVWDENTGCYYYWNTQTNEVTWELPQYLATQVQGLQHYQP | -0.794 ± 0.19
77 | SGWQYDTQCSLAGVGIEMNDWQEVWDENTGCYYYWNTQTNEVTWELPQYLATQVQGLQHYQP | -0.676 ± 0.42
78 | SGWQYDTQCSLAGVGIEMYDWQEVWDENTGCYYYWNTQTNEVTWELPQYLATQVQGLQHYQP | -0.96 ± 0.28
79 | SGWQYDTQCSLAGVGIEMEDWQEVWDENTGCYYYWNTQTNEVTWELPQYLATQVQGLQHYQP | -0.4 ± 0.09
80 | SGWQYDTQCSLAGVGIEMIDWQEVWDENTGCYYYWNTQTNEVTWELPQYLATQVQGLQHYQP | -0.769 ± 0.19
81 | SGWQYDTQCSLAGVGIEMRDWQEVWDENTGCYYYWNTQTNEVTWELPQYLATQVQGLQHYQP | -0.722 ± 0.075
82 | SGWQYDTQCSLAGVGIEMPDWQEVWDENTGCYYYWNTQTNEVTWELPQYLATQVQGLQHYQP | -0.897 ± 0.14
83 | SGWQYDTQCSLAGVGIEMTDWQEVWDENTGCYYYWNTQTNEVTWELPQYLATQVQGLQHYQP | -0.782 ± 0.14
84 | SGWQYDTQCSLAGVGIEMDDWQEVWDENTGCYYYWNTQTNEVTWELPQYLATQVQGLQHYQP | -0.362 ± 0.12
85 | SGWQYDTQCSLAGVGIEMCDWQEVWDENTGCYYYWNTQTNEVTWELPQYLATQVQGLQHYQP | -0.918 ± 0.19
86 | SGWQYDTQCSLAGVGIEMSDWQEVWDENTGCYYYWNTQTNEVTWELPQYLATQVQGLQHYQP | -0.454 ± 0.094
